In patent publication US12351833B2, “Unspecific peroxygenase enzyme variants for selective fatty acid epoxidation or hydroxylation” (CONSEJO SUPERIOR DE INVESTIGACIONES CIENTÍFICAS (CSIC), priority 2019, dated 2025):
Residue numbers refer to the chain shown, from its start. Names and notes keep the numbering of the source.

B1: rMroUPO: recombinant Marasmius rotula unspecific peroxygenase, SEQ ID NO: 1, encoded by SEQ ID NO: 9, expressed in E. coli (protein)
chain: SAHPWKAPGPNDSRGPCPGLNTLANHGFLPRNGRNISVPMIVKAGFEGYNVQSDILILAGKIGMLTSREADTISLEDLKLHGTIEHDASLSREDVAIGDNLHFNEAIFTTLANSNPGADVYNISSAAQVQHDRLADSLARNPNVTNTDLTATIRSSESAFFLTVMSAGDPLRGEAPKKFVNVFFREERMPIKEGWKRSTTPITIPLLGPIIERITELSDWKPTGDNCGAIVLSPEL
modifications: Recombinant Marasmius rotula unspecific peroxygenase enzyme, rMroUPO
B2: rMroUPO I153T mutated variant: rMroUPO in which isoleucine 153 was replaced by threonine (SEQ ID NO: 2) (protein)
chain: B1 chain with I153T
modifications: Variant of the invention which comprises the SEQ ID NO 1 and the amino acid substitution I153T
B3: rMroUPO I153F/S156F mutated variant: rMroUPO in which isoleucine 153 and serine 156 were both replaced by phenylalanine (SEQ ID NO: 3) (protein)
chain: B1 chain with I153F, S156F
modifications: Variant of the invention which comprises the SEQ ID NO 1 and the amino acid substitutions I153F and S156F

Assays:
Assay type in all cases: biochemical
[1] = Reaction of UPO enzyme with oleic acid and H2O2, products analysed by GC-MS; conditions: for Conversion of the substrate (oleic acid) into products / selectivity towards only epoxidation (ratio between only epoxides and other oxygenation products) / share of products that are only epoxides / share of products that are other (hydroxylated) epoxides / epoxidation activity / epoxidized species detected (words): enzyme 0.2 μM, oleic acid 100 μM, H2O2 2,500 μM; for Conversion of the substrate (oleic acid) into products: 30° C., 50 mM phosphate pH 5.5, 30 min, 20% acetone; for selectivity towards only epoxidation (ratio between only epoxides and other oxygenation products) / share of products that are only epoxides / share of products that are other (hydroxylated) epoxides / epoxidation activity / epoxidized species detected (words): pH 5.5, 30° C., 30 min
Procedure: The rMroUPO (0.2 μM) was incubated with oleic acid (100 μM) and H2O2 (2,500 μM) at 30° C. in 50 mM phosphate, pH 5.5, for 30 min. Oleic acid had been previously dissolved in acetone so that the final acetone concentration attained 20% (v/v) in the embodiment. After the incubation time, the products were recovered by liquid-liquid extraction with t-butyl-methyl-ether. The organic solvent was removed under N2 current. N,O-Bis-(trimethylsilyl)trifluoroacetamide was employed to prepare the trimethylsilyl derivatives of the compounds to be separated by gas chromatography and identified by mass spectrometry.
(§1) Chromatographic analyses were carried out in a gas chromatograph coupled to a mass-spectrometry detector. The column used was a fused-silica DB-5HT capillary column (30 m×0.25 mm internal diameter×0.1 μm film thickness). Oven was heated from 120° C. (1 min) to 300° C. (5 min) at 5° C.·min. Injection was performed at 300° C. and transfer line was maintained at 300° C. Compounds were identified by comparison of their mass spectra with those of authentic standards and those from the NIST and Wiley libraries as well as by mass fragmentography. Quantification of the products was carried out by integrating the total ion peak areas, using external standard curves of the same or closely related compounds.
Reactions with oleic acid and identification and quantification of the products were conducted as explained in Example 3.
The rMroUPO I153F/S156F mutated variant (SEQ ID NO: 3), in which isoleucine 153 and serine 156 were both replaced by phenylalanine residues, was constructed by site-directed mutagenesis, in a PCR reaction in which the following oligos—complementary to the region of the gene to be mutated, but bearing the desired mismatches—were used as primers: 5′-[…]-3′ (SEQ ID NO: 8), along with its reverse complementary counterpart. PCR reaction and sequencing of the mutated variant were carried out as described in Example 4. Expression, purification of the enzyme, reactions with oleic acid and GC-MS identification and quantification of the products were conducted as in Example 3.

[2] = Reaction of UPO enzyme with linoleic acid and H2O2, products analysed by GC-MS; conditions: for Conversion of linoleic acid / selectivity towards only epoxidation (ratio between only epoxides and other oxygenation products) / share of products that are hydroxylated epoxides / share of products that are only epoxides: enzyme 0.6 μM, linoleic acid 100 μM, H2O2 1,250 μM; for Conversion of linoleic acid: 30° C., 50 mM phosphate pH 5.5, 30 min, 20% acetone; for selectivity towards only epoxidation (ratio between only epoxides and other oxygenation products) / share of products that are hydroxylated epoxides / share of products that are only epoxides: pH 5.5, 30° C., 30 min
Procedure: as §1
An embodiment was designed in which rMroUPO (0.6 μM) was incubated with linoleic acid (100 μM, previously dissolved in acetone so that the final acetone concentration in the embodiment was of 20%) and H2O2 (1,250 μM) at 30° C. in 50 mM phosphate, pH 5.5, for 30 min. Identification and quantification of the products was conducted as detailed in Example 3.
Reactions were performed as in Example 6. Identification and quantification of the products is described in Example 3.

[3] = Reaction of UPO enzyme with α-linolenic acid and H2O2, products analysed by GC-MS; conditions: for Conversion of α-linolenic acid: 30° C., 50 mM phosphate pH 5.5, 30 min
Procedure: as §1
Reactions were performed in an embodiment consisting of rMroUPO (0.2 μM), incubated with α-linolenic acid (100 μM) and H2O2 (1,250 μM) at 30° C., in 50 mM phosphate, pH 5.5, for 30 min. Extraction and separation of the reaction products was carried out as described in Example 3. Since no available commercial standards of epoxidized α-linolenic acid were available, they were chemically synthesised as follows: a solution of peracetic acid (1.8 mmol, 3.6 equiv) and NaOAc (0.7 mmol; 1.4 equiv) was added to α-linolenic acid (0.5 mmol) using a syringe pump at 0° C. for 1 h. The mixture was stirred at 0° C. for an additional h. Products were recovered by liquid-liquid extraction with t-butyl-methyl-ether, resulting in a mixture of mono- and di-epoxides. Identification of the compounds was made by comparison of the mass spectra with those of the synthesised standards and by mass fragmentography. Quantification was carried out as detailed in Example 3.
Reactions and analyses of the products were performed as in Example 8. FIG. 7 illustrates a chromatogram of the reaction products, among which single epoxides, di-epoxides and other epoxidized derivatives. Conversion of the substrate attained 97%, of which 92% (of which 88% are di-epoxides) represented only epoxides and a mere 8% other epoxide derivatives. Therefore, the selectivity towards only epoxidation reached 11.50.

[4] = enzyme 0.2 μM, α-linolenic acid 100 μM, H2O2 1,250 μM
[5] = α-linolenic acid 100 μM, enzyme 0.2 μM, H2O2 1,250 μM, pH 5.5, 30° C., 30 min

Molecule | Conversion of the substrate (oleic acid) into products [1] [%] | selectivity towards only epoxidation (ratio between only epoxides and other oxygenation products) [1] | share of products that are only epoxides [1] [%] | share of products that are other (hydroxylated) epoxides [1] [%] | Conversion of linoleic acid [2] [%] | selectivity towards only epoxidation (ratio between only epoxides and other oxygenation products) [2] | share of products that are hydroxylated epoxides [2] [%] | share of products that are only epoxides [2] [%] | Conversion of α-linolenic acid [3, 4] [%] | selectivity towards only epoxidation (ratio between only epoxides and other oxygenation products) [3, 5] | share of products that are only epoxides [3, 5] [%] | share of products that are other epoxides / other epoxide derivatives [3, 5] [%] | other results
B1 | 94 | 0.67 | 40 | 57 | 98 | 0.27 | 79 | 21 | 98 | 0.79 | 44 | 56 | –
B2 | 85 | 2.67 | 72 | 17 | 93 | 0.72 | 58 | 42 | 97 | 11.50 | 92 | 8 | increase of epoxidation selectivity relative to rMroUPO ([1]; oleic acid): 4 fold; ratio between stearic acid epoxide and its additionally hydroxylated derivatives (words, vs MroUPO) ([1]; oleic acid): increased; increase of epoxidation selectivity relative to rMroUPO ([2]; linoleic acid): 2.7 fold; increase of epoxidation selectivity relative to rMroUPO ([3]; α-linolenic acid): 14.6 fold; share of di-epoxides among only epoxides [3, 5]: 88%
B3 | – | – | – | – | – | – | – | – | – | – | – | – | epoxidation activity / epoxidized species detected (words) ([1]; listed as I153F/S156F mutated variant): completely abolishes the epoxidation activity; epoxidation activity / epoxidized species detected (words) ([1]; listed as I153F/S156F variant): completely abolished the MroUPO ability to epoxidize oleic acid; epoxidation activity / epoxidized species detected (words) ([1]; listed as MroUPO I153F/S156F mutated variant): No traces of epoxidized species were detected; selectivity towards hydroxylation ([1]; oleic acid, products restricted to ω-1 and ω hydroxylated, keto and carboxylic species): total towards hydroxylation
